Assay results published in paper PMC3605307.

B1: Human TRAIL-R2-Fc fusion protein (wild type), O14763 M152A; R154A; K155A (protein)
chain: QQDLAPQQRAAPQQKRSSPSEGLCPPGHHISEDGRDCISCKYGQDYSTHWNDLLFCLRCTRCDSGEVELSPCTTTRNTVCQCEEGTFREEDSPEACAACRTGCPRGMVKVGDCTPWSDIECVHKESG
B2: Human TRAIL-R2-Fc fusion protein (wild type), O14763 R154A (protein)
chain: QQDLAPQQRAAPQQKRSSPSEGLCPPGHHISEDGRDCISCKYGQDYSTHWNDLLFCLRCTRCDSGEVELSPCTTTRNTVCQCEEGTFREEDSPEMCAKCRTGCPRGMVKVGDCTPWSDIECVHKESG
B3: Human TRAIL-R2-Fc fusion protein (wild type), O14763 M152A (protein)
chain: QQDLAPQQRAAPQQKRSSPSEGLCPPGHHISEDGRDCISCKYGQDYSTHWNDLLFCLRCTRCDSGEVELSPCTTTRNTVCQCEEGTFREEDSPEACRKCRTGCPRGMVKVGDCTPWSDIECVHKESG
B4: Human TRAIL-R2-Fc fusion protein (wild type), O14763 P150A (protein)
chain: QQDLAPQQRAAPQQKRSSPSEGLCPPGHHISEDGRDCISCKYGQDYSTHWNDLLFCLRCTRCDSGEVELSPCTTTRNTVCQCEEGTFREEDSAEMCRKCRTGCPRGMVKVGDCTPWSDIECVHKESG
B5: Human TRAIL-R2-Fc fusion protein (wild type), O14763 K155A (protein)
chain: QQDLAPQQRAAPQQKRSSPSEGLCPPGHHISEDGRDCISCKYGQDYSTHWNDLLFCLRCTRCDSGEVELSPCTTTRNTVCQCEEGTFREEDSPEMCRACRTGCPRGMVKVGDCTPWSDIECVHKESG

Target: T1, Recombinant UL141 ectodomain (soluble, released from the Fc fusion), Q6RJQ3
T1 chain: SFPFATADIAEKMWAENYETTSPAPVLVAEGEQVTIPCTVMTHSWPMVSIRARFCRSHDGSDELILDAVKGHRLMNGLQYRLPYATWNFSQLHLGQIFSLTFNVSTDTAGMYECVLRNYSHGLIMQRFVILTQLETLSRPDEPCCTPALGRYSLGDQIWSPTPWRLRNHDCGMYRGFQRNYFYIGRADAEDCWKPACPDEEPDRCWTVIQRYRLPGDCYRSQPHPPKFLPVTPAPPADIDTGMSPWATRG
Test: SPR
Settings: chain shown with the change

Point of comparison: B4, Kd 8 nM. Against it:
- B1 — within 1.5-fold, 7 nM
- B2 — within 1.5-fold, 6 nM
- B3 — within 1.5-fold, 7 nM
- B5 — the same, 8 nM
